Experiment [1] deals with T1, human calcitonin receptor (human, UniProt P30988 25-474).
T1 construct: whole, on cells; also called hCTR; hCT
T1 sequence (looked up): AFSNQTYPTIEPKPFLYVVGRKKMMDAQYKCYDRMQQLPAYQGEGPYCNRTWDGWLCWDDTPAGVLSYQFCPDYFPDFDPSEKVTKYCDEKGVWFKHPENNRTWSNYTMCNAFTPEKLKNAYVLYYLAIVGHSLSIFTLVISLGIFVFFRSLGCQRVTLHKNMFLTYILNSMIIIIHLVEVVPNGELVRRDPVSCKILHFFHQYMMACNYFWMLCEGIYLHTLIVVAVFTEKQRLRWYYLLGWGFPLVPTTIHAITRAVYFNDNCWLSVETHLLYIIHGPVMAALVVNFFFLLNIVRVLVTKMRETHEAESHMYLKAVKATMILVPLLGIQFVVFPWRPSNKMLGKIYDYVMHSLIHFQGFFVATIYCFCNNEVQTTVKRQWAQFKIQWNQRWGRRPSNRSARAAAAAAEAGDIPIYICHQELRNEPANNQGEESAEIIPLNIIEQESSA
As to the kind of experiment: ratio of IC50 at hCTR to IC50 at the human amylin receptor (reference). In short, it runs like this:
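Competition binding by SPA with cell membranes (35 ng/μL) and SPA beads in 50 mM Hepes pH 7.4 with 1 mM CaCl2, 5 mM MgCl2, 0.1% OA and 0.02% Tween20. Incubated 120 min at 25 °C with shaking, then counted.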

In experiment [2] the target is T1, human calcitonin receptor. As to the kind of experiment: SPA competition binding, membranes with human calcitonin receptor, displacement of 125I-calcitonin (Assay VII). In short, it runs like this: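 BHK hCTR membranes 35 ng/μL + SPA beads 0.05 mg/well; buffer 50 mM Hepes pH 7.4, 1 mM CaCl2, 5 mM MgCl₂, 0.1% OA, 0.02% Tween20. 120 min, 25° C., shaking. Scintillation count; IC50 by one-site binding competition.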
A general note: Displacement assays read how much labelled ligand stays bound in the presence of the test substance.

Numbered stars: 1 amine (or outer) side, 2 acyl side, 3 side chain; on linkers, the order of the positions; unused ones are H or OH. Bridge positions count the residues as written; N and C are the ends. Side chains are listed from the residue outwards. Ends that are not written are not given here. * marks the point of attachment. C20 diacid = O=C(O)CCCCCCCCCCCCCCCCCCC(=O)*; γGlu = O=C(O)[C@H](CCC(=O)[*:2])N[*:1]; AEEA = NCCOCCOCC(=O)O

Experimental findings from patent US20140087995A1 (published 2014) are described below.

B1: N^ε1-[2-[2-[2-[[2-[2-[2-[[(4S)-4-carboxy-4-(19-carboxynonadecanoylamino)butanoyl]amino]ethoxy]ethoxy]acetyl]amino]ethoxy]ethoxy]acetyl]-[Arg17,Pro21,Pro27,Glu35 … (peptide)
peptide: K([AEEA-AEEA-γGlu-C20 diacid])CNTATCATQRLANFLRHSSPNFGAIPSSTNVGSETY-NH2
modifications: disulfide 2-7; N-terminus assumed
SMILES: CC[C@H](C)[C@H](NC(=O)[C@H](C)NC(=O)CNC(=O)[C@H](Cc1ccccc1)NC(=O)[C@H](CC(N)=O)NC(=O)[C@@H]1CCCN1C(=O)[C@H](CO)NC(=O)[C@H](CO)NC(=O)[C@H](Cc1c[nH]cn1)NC(=O)[C@H](CCCNC(=N)N)NC(=O)[C@H](CC(C)C)NC(=O)[C@H](Cc1ccccc1)NC(=O)[C@H](CC(N)=O)NC(=O)[C@H](C)NC(=O)[C@H](CC(C)C)NC(=O)[C@H](CCCNC(=N)N)NC(=O)[C@H](CCC(N)=O)NC(=O)[C@@H](NC(=O)[C@H](C)NC(=O)[C@@H]1CSSC[C@H](NC(=O)[C@@H](N)CCCCNC(=O)COCCOCCNC(=O)COCCOCCNC(=O)CC[C@H](NC(=O)CCCCCCCCCCCCCCCCCCC(=O)O)C(=O)O)C(=O)N[C@@H](CC(N)=O)C(=O)N[C@@H]([C@@H](C)O)C(=O)N[C@@H](C)C(=O)N[C@@H]([C@@H](C)O)C(=O)N1)[C@@H](C)O)C(=O)N1CCC[C@H]1C(=O)N[C@@H](CO)C(=O)N[C@@H](CO)C(=O)N[C@H](C(=O)N[C@@H](CC(N)=O)C(=O)N[C@H](C(=O)NCC(=O)N[C@@H](CO)C(=O)N[C@@H](CCC(=O)O)C(=O)N[C@H](C(=O)N[C@@H](Cc1ccc(O)cc1)C(N)=O)[C@@H](C)O)C(C)C)[C@@H](C)O
notes: also called compound 25
In the case of B1, in experiment [1], the “Ratio hCT/hAmylin binding” value was 56.5. For the same molecule, the 50% inhibitory concentration (IC50) in experiment [2] stood at 43.4 nM.

B2: N^ε1-[2-[2-[2-[[(4S)-4-carboxy-4-(19-carboxynonadecanoylamino)butanoyl]amino]ethoxy]ethoxy]acetyl]-[Arg17,Pro21,Pro27,Pro31]-h-amylin (peptide)
peptide: K([AEEA-γGlu-C20 diacid])CNTATCATQRLANFLRHSSPNFGAIPSSTPVGSNTY-NH2
modifications: disulfide 2-7; N-terminus assumed
SMILES: CC[C@H](C)[C@H](NC(=O)[C@H](C)NC(=O)CNC(=O)[C@H](Cc1ccccc1)NC(=O)[C@H](CC(N)=O)NC(=O)[C@@H]1CCCN1C(=O)[C@H](CO)NC(=O)[C@H](CO)NC(=O)[C@H](Cc1c[nH]cn1)NC(=O)[C@H](CCCNC(=N)N)NC(=O)[C@H](CC(C)C)NC(=O)[C@H](Cc1ccccc1)NC(=O)[C@H](CC(N)=O)NC(=O)[C@H](C)NC(=O)[C@H](CC(C)C)NC(=O)[C@H](CCCNC(=N)N)NC(=O)[C@H](CCC(N)=O)NC(=O)[C@@H](NC(=O)[C@H](C)NC(=O)[C@@H]1CSSC[C@H](NC(=O)[C@@H](N)CCCCNC(=O)COCCOCCNC(=O)CC[C@H](NC(=O)CCCCCCCCCCCCCCCCCCC(=O)O)C(=O)O)C(=O)N[C@@H](CC(N)=O)C(=O)N[C@@H]([C@@H](C)O)C(=O)N[C@@H](C)C(=O)N[C@@H]([C@@H](C)O)C(=O)N1)[C@@H](C)O)C(=O)N1CCC[C@H]1C(=O)N[C@@H](CO)C(=O)N[C@@H](CO)C(=O)N[C@H](C(=O)N1CCC[C@H]1C(=O)N[C@H](C(=O)NCC(=O)N[C@@H](CO)C(=O)N[C@@H](CC(N)=O)C(=O)N[C@H](C(=O)N[C@@H](Cc1ccc(O)cc1)C(N)=O)[C@@H](C)O)C(C)C)[C@@H](C)O
notes: also called compound 49
As to B2, in experiment [1], the “Ratio hCT/hAmylin binding” value was 10.8. The IC50 in experiment [2] was 12.9 nM.

B3: N^ε1-[(4S)-4-carboxy-4-(19-carboxynonadecanoylamino)butanoyl]-[Arg17,Pro21,Pro27,Glu35]-h-amylin (peptide)
peptide: K([γGlu-C20 diacid])CNTATCATQRLANFLRHSSPNFGAIPSSTNVGSETY-NH2
modifications: disulfide 2-7; N-terminus assumed
SMILES: CC[C@H](C)[C@H](NC(=O)[C@H](C)NC(=O)CNC(=O)[C@H](Cc1ccccc1)NC(=O)[C@H](CC(N)=O)NC(=O)[C@@H]1CCCN1C(=O)[C@H](CO)NC(=O)[C@H](CO)NC(=O)[C@H](Cc1c[nH]cn1)NC(=O)[C@H](CCCNC(=N)N)NC(=O)[C@H](CC(C)C)NC(=O)[C@H](Cc1ccccc1)NC(=O)[C@H](CC(N)=O)NC(=O)[C@H](C)NC(=O)[C@H](CC(C)C)NC(=O)[C@H](CCCNC(=N)N)NC(=O)[C@H](CCC(N)=O)NC(=O)[C@@H](NC(=O)[C@H](C)NC(=O)[C@@H]1CSSC[C@H](NC(=O)[C@@H](N)CCCCNC(=O)CC[C@H](NC(=O)CCCCCCCCCCCCCCCCCCC(=O)O)C(=O)O)C(=O)N[C@@H](CC(N)=O)C(=O)N[C@@H]([C@@H](C)O)C(=O)N[C@@H](C)C(=O)N[C@@H]([C@@H](C)O)C(=O)N1)[C@@H](C)O)C(=O)N1CCC[C@H]1C(=O)N[C@@H](CO)C(=O)N[C@@H](CO)C(=O)N[C@H](C(=O)N[C@@H](CC(N)=O)C(=O)N[C@H](C(=O)NCC(=O)N[C@@H](CO)C(=O)N[C@@H](CCC(=O)O)C(=O)N[C@H](C(=O)N[C@@H](Cc1ccc(O)cc1)C(N)=O)[C@@H](C)O)C(C)C)[C@@H](C)O
notes: also called compound 27
As to B3, the “Ratio hCT/hAmylin binding” value in experiment [1] is 41.3. In addition, the IC50 in experiment [2] stood at 34.5 nM.

B4: N^ε1-[2-[2-[2-[[(4S)-4-carboxy-4-(19-carboxynonadecanoylamino)butanoyl]amino]ethoxy]ethoxy]acetyl]-[Arg17,Pro21,Pro27,Glu35]-h-amylin (peptide)
peptide: K([AEEA-γGlu-C20 diacid])CNTATCATQRLANFLRHSSPNFGAIPSSTNVGSETY-NH2
modifications: disulfide 2-7; N-terminus assumed
SMILES: CC[C@H](C)[C@H](NC(=O)[C@H](C)NC(=O)CNC(=O)[C@H](Cc1ccccc1)NC(=O)[C@H](CC(N)=O)NC(=O)[C@@H]1CCCN1C(=O)[C@H](CO)NC(=O)[C@H](CO)NC(=O)[C@H](Cc1c[nH]cn1)NC(=O)[C@H](CCCNC(=N)N)NC(=O)[C@H](CC(C)C)NC(=O)[C@H](Cc1ccccc1)NC(=O)[C@H](CC(N)=O)NC(=O)[C@H](C)NC(=O)[C@H](CC(C)C)NC(=O)[C@H](CCCNC(=N)N)NC(=O)[C@H](CCC(N)=O)NC(=O)[C@@H](NC(=O)[C@H](C)NC(=O)[C@@H]1CSSC[C@H](NC(=O)[C@@H](N)CCCCNC(=O)COCCOCCNC(=O)CC[C@H](NC(=O)CCCCCCCCCCCCCCCCCCC(=O)O)C(=O)O)C(=O)N[C@@H](CC(N)=O)C(=O)N[C@@H]([C@@H](C)O)C(=O)N[C@@H](C)C(=O)N[C@@H]([C@@H](C)O)C(=O)N1)[C@@H](C)O)C(=O)N1CCC[C@H]1C(=O)N[C@@H](CO)C(=O)N[C@@H](CO)C(=O)N[C@H](C(=O)N[C@@H](CC(N)=O)C(=O)N[C@H](C(=O)NCC(=O)N[C@@H](CO)C(=O)N[C@@H](CCC(=O)O)C(=O)N[C@H](C(=O)N[C@@H](Cc1ccc(O)cc1)C(N)=O)[C@@H](C)O)C(C)C)[C@@H](C)O
notes: also called compound 26
Take B4: the “Ratio hCT/hAmylin binding” value in experiment [1] was found to be 47.5. Further, in experiment [2], the IC50 was 25.3 nM.

B5: N^ε1-[2-[2-[2-[[(4S)-4-carboxy-4-(19-carboxynonadecanoylamino)butanoyl]amino]ethoxy]ethoxy]acetyl]-[Arg17,Pro21,Pro27]-h-amylin (peptide)
peptide: K([AEEA-γGlu-C20 diacid])CNTATCATQRLANFLRHSSPNFGAIPSSTNVGSNTY-NH2
modifications: disulfide 2-7; N-terminus assumed
SMILES: CC[C@H](C)[C@H](NC(=O)[C@H](C)NC(=O)CNC(=O)[C@H](Cc1ccccc1)NC(=O)[C@H](CC(N)=O)NC(=O)[C@@H]1CCCN1C(=O)[C@H](CO)NC(=O)[C@H](CO)NC(=O)[C@H](Cc1c[nH]cn1)NC(=O)[C@H](CCCNC(=N)N)NC(=O)[C@H](CC(C)C)NC(=O)[C@H](Cc1ccccc1)NC(=O)[C@H](CC(N)=O)NC(=O)[C@H](C)NC(=O)[C@H](CC(C)C)NC(=O)[C@H](CCCNC(=N)N)NC(=O)[C@H](CCC(N)=O)NC(=O)[C@@H](NC(=O)[C@H](C)NC(=O)[C@@H]1CSSC[C@H](NC(=O)[C@@H](N)CCCCNC(=O)COCCOCCNC(=O)CC[C@H](NC(=O)CCCCCCCCCCCCCCCCCCC(=O)O)C(=O)O)C(=O)N[C@@H](CC(N)=O)C(=O)N[C@@H]([C@@H](C)O)C(=O)N[C@@H](C)C(=O)N[C@@H]([C@@H](C)O)C(=O)N1)[C@@H](C)O)C(=O)N1CCC[C@H]1C(=O)N[C@@H](CO)C(=O)N[C@@H](CO)C(=O)N[C@H](C(=O)N[C@@H](CC(N)=O)C(=O)N[C@H](C(=O)NCC(=O)N[C@@H](CO)C(=O)N[C@@H](CC(N)=O)C(=O)N[C@H](C(=O)N[C@@H](Cc1ccc(O)cc1)C(N)=O)[C@@H](C)O)C(C)C)[C@@H](C)O
notes: also called compound 41
With B5, in experiment [1], the “Ratio hCT/hAmylin binding” value was found to be 49.9. Also, the IC50 in experiment [2] was 21.3 nM.

For orientation: IC50 means the midpoint of a concentration-inhibition curve.
